Data: the nanobody polyreactivity screen of Harvey et al. (2022)

Assay: yeast display, Sf9 membrane polyspecificity reagent, FACS + sequencing; frameworks hold sequencing errors
How it was run: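 Genes from sorted yeast were amplified by colony PCR, read by MiSeq 2 × 250 sequencing and filtered on CDR length. These cells carried a synthetic nanobody library in Saccharomyces cerevisiae BJ5465 and were sorted by FACS into low and high (top ~1%) gates on anti-HA and streptavidin fluorescence. Polyreactivity is labelled according to the gate of origin.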

Row | Sequence | polyreactivity (PSR sort gate)
1 | QVQLVESGGGLVQAGGSLRLSCAASGSIFYYNAMGWFRQAGGKERELVAALSWSGGSTYYADSVKGRYTISRDNATNTVSLQMNSLKPEETAVYYCNAVGWYTYFSGSRKYNSWGQGTQVTVSS | low polyreactivity
2 | QVQLVESGGGLVQAGGSLRLSCAASGSIFYYNAMGWYRQAPGKERELVAAISQRGTRTYYADSVKGRFTISRDNAKNTVYLQMNSLKPEVTAVYYCAAESSSYYGYYIYYYWGQGTQVTVSS | high polyreactivity
3 | QVQLVESGGGLVQAGGSLRLSCAASGSIFYYNAMGWYRQAPGKERELVAAISVSGGSTYYADSVKGRFTISRDNAKNTVYLQMNSLKPEDTAVYYCAAEWLYYYWLPGRADYLEYDYWGQGTQVTVSS | low polyreactivity
4 | QVQLVESGGGLVQAGGSLRLSCAASGSIFYYNAMGWYRQAPGKERELVASISERGGITRYADSVKGRFTISRDNAKNTVYLQMNSLKREDTAVYYCNRSISLTFYAYAGYFLALDYWGQGTQVTVSS | low polyreactivity
5 | QVQLVESGGGLVQAGGSLRLSCAASGSIFYYNAMGWYRQAPGKERELVATIRSGGNTNYADSVKGRFTISRDNAKNTVYLQMNSLKPEDTAVYYCAARGAYHGYRYDSWGQGTQVTVSS | low polyreactivity
6 | QVQLVESGGGLVQAGGSLRLSCAASGSIFYYNAMGWYRQAPGTERELVAAITSSGGSTYADSVKGRFTISRDNAKNTVYLQMNSLKPEDTAVYYCATVAHGLWSGSGYIYAYDYWGQGTQVTVSS | low polyreactivity
7 | QVQLVESGGGLVQAGGSLRLSCAASGSIFYYNAMGWYRQAPGTERELVAAITSSGGSTYYADSVKGRFTISRDNAKNTVYLQMNSLKPEDTAVYYCNADQDAYYLVYIATYDYWGQGTQVTVSS | low polyreactivity
8 | QVQLVESGGGLVQAGGSLRLSCAASGSIFYYNTMGRYRQAPGKERELVAAIRFDDGSTYYADSVKGRFTISRDNAKNTVYLQMNSLKPEDTAVYYCAADWIVVSEFGLDYHMDYWGQGTQVTVSS | low polyreactivity
9 | QVQLVESGGGLVQAGGSLRLSCAASGSIFYYTNTMGWYRQAPGKERELFAAISSSGGTTYADSVKGRFTISRDYSKNTVYLQMNSLKPEDSAVYYCALDCVLKTYVRGTYDYWGQGTQVTVSS | high polyreactivity
10 | QVQLVESGGGLVQAGGSLRLSCAASGSIFYYYAMGWYRLAAGKERELVAAINSGGSTYADSVKGRFSISRDNAKNTVYLQMNSLIPEDSAVYYSATDIHSVDNNRDKHDYDYWGQGTQVTVSS | low polyreactivity
11 | QVQLVESGGGLVQAGGSLRLSCAASGSIFYYYAMGWYRQAPGKERELVAAISRSGGSTYYADSVKGRFTISRDNAKNTVYLQMNSLKPEDTAVYYCNVAYGLQPYDYWGQGTQVTVSS | high polyreactivity
12 | QVQLVESGGGLVQAGGSLRLSCAASGSIFYYYAMGWYRQAPGKERELVAAISTSSGRTYYADSVKGRFTISRDNAKNTVYLQMNSLKPEDTAVYYCATRYRRDGGSWGQGTQVTVSS | high polyreactivity
13 | QVQLVESGGGLVQAGGSLRLSCAASGSIFYYYAMGWYRQAPGKERELVAAISYGGTRTYYADSVKGRFTISRDNAKNTVYLQMNSLKPEDTAVYYCAASQYSFKGRDYDYWGQGTQVTVSS | low polyreactivity
14 | QVQLVESGGGLVQAGGSLRLSCAASGSIFYYYAMGWYRQAPGKERELVAAITVSGGRTYYADSVKGRFTISRDNAKNTVYLQMNSLKPEDTAVYYCAAQIYGKYDYWGQGTQVTVSS | low polyreactivity
15 | QVQLVESGGGLVQAGGSLRLSCAASGSIFYYYAMGWYRQAPGKERELVAAITVSGGSTYYADSVKGRFTISRDNAKNTVYLQMNSLKPEDTAVYYCAAVSLFRDSQFDYWGQGTQVTVSS | low polyreactivity
16 | QVQLVESGGGLVQAGGSLRLSCAASGSIFYYYAMGWYRQAPGKERELVASITSGGRTYYADSVKGRFTISRDNAKNTVYFQMNSLKPEDTAVYYCAAVYGGLTLTRNYNWGQGTQVTVSS | high polyreactivity
17 | QVQLVESGGGLVQAGGSLRLSCAASGSIFYYYAMVWSRQAPGKERELVAAISSGGRTYYADSVKGRFTISRDNAKYTVYLQMNSLKPEDTAVYYCAAVLRSNRGGYWGQGTQVTVSS | high polyreactivity
18 | QVQLVESGGGLVQAGGSLRLSCAASGSIFYYYPMGWYRQAPGKERELVAAINSVGSTYADSVKGRFTISRDNAKNTVYLQMNSLKPEDSAVYYCENYYWGQGTQVTVSS | low polyreactivity
19 | QVQLVESGGGLVQAGGSLRLSCAASGSIFYYYTMGWYRQAPGKERELVAAINSGGNTYYADSVKGRFTISRDNAKNTVYLQMNSLKPEDTAVYYCAAGPLYYDYDYWGQGTQVTVSS | low polyreactivity
20 | QVQLVESGGGLVQAGGSLRLSCAASGSIFYYYTMGWYRQSPGKERELVAAIRWSSGTTYYADSVKGRFTISRDKAKNTVYLQINSLKPEDTAVYYCAAGGHARTWYAYYYWGQGTQVTVSS | low polyreactivity
21 | QVQLVESGGGLVQAGGSLRLSCAASGSIFYYYVRGWYRQAPGKEREFVAAISWGGDSTYYADSVKGRFTISRDNAKNTFYLQMNSLQPEDTAVYYCNADYPWSVVGYDYWAQGTQVTVSS | low polyreactivity
22 | QVQLVESGGGLVQAGGSLRLSCAASGSIHSLYTMGWYRQAPGKERELVARISRSGGSTYYADSVKGRFTISRDYAKNTVYLQMNSLKPEDTAVYYCADERKNKYDYWGQGTQVTVSS | high polyreactivity

Row | Sequence | polyreactivity (PSR sort gate)
23 | QVQLVESGGGLVQAGGSLRLSCAASGSIIDLYAMGWYRQAPGKERELVAAISFSGGSTYYADSVKGRFTISRDNAKNTVYLQMNSLKPEDTAVYYCAKDVRRTLRFRAFDYWGQGTQVSVSS | low polyreactivity
24 | QVQLVESGGGLVQAGGSLRLSCAASGSIIFRYAMGWSRQAPGKERELVARISWGGGRTYYADSVKGRFTISRDNAQNTVYLQMNSLKPEDSAVYYCNRAFWVNPGGFDYWGQGTQVTVSS | high polyreactivity
25 | QVQLVESGGGLVQAGGSLRLSCAASGSIIFYYAMGWYRQAPGKERDFVAGITYSGGITYYADSVKGRFTISRDNAKNTVYLQMNSMKPEDTAVYFCDYGGGVYQYGYWGQGTQVTVSS | low polyreactivity
26 | QVQLVESGGGLVQAGGSLRLSCAASGSIIGDNTMGWYRPAPGKERELVAAISSSGSTYYADSVKGRFTISRDNAKNTVYLQMNSLKPEDTAVYYCAAYDYGHVEYGYWGQGSQVTVSS | low polyreactivity
27 | QVQLVESGGGLVQAGGSLRLSCAASGSIIGRYTMGWYRQAPGKERELVAAISRSGGSTYYADSVKGRFTISRDNAKNTVYLQMNSLKPEDTAVYYCAARYRAKRRYYYWGQGTQVTVSS | high polyreactivity
28 | QVQLVESGGGLVQAGGSLRLSCAASGSIIGVNAMGWYRQAPGKERELVAAISSTGGSTYYADSVKGRFTISRDNAKNTVYLQMNSLKPEDTAVYYCNTDYSKSIGDGYAGFDYWGQGTQVTVSS | low polyreactivity
29 | QVQLVESGGGLVQAGGSLRLSCAASGSIIGYYTMGWYRQAPGKEREFVAAISWSGGSTYYADSVKGRFTISRDNAKNTVYLQMNSLKPEDTAVYYCNADVYWEYDYCGQGTQVTVSS | low polyreactivity
30 | QVQLVESGGGLVQAGGSLRLSCAASGSIIKWYAMGWYRQAPGKERELVAAISASGGSTYYADSVKGRFTISRDNAKHTVYLQMNSLKPEDTAVYYCNTDHYYSSRHYDYWGQGTQVTVSS | low polyreactivity
31 | QVQLVESGGGLVQAGGSLRLSCAASGSIILHNAMGWYRQAPGKERELVAGITGSGGSTYYADSVKGRFTISRDNAMNTVYLQMNSLKPEDTAVYYCAAGSRSRYYRYVYYKYVTMDYWGQGTQVTVSS | high polyreactivity
32 | QVQLVESGGGLVQAGGSLRLSCAASGSIILHYAMGRYRHAPRKERELVAVIRGGGSTNYADSVKGRFTISRDNAKNSVYLQMNSLKPEDSAVYYCAADYEAYRYDFWGQGTQVTVSS | high polyreactivity
33 | QVQLVESGGGLVQAGGSLRLSCAASGSIINAYAMGWYRPAPGKERELVAAINSGGTTYYADSVKGRFTISRDNAKNTVYLQMISLKPEDTAVYYCNAVSKWAIYDYWGQGTQVTVSS | high polyreactivity
34 | QVQLVESGGGLVQAGGSLRLSCAASGSIISYYAMGWYRQAPGKERELVAAISWSGGSTYYADSVKGRFTISRDNAKNTVYLQMNSLKPEDTAVYYCNTVRRLKRYSSYGHDYWGQGTQVTVSS | high polyreactivity
35 | QVQLVESGGGLVQAGGSLRLSCAASGSIITGYAMGWYRQAPGKERELVAAITGNAGSTYYADSVKGRFTISRDNAKNTVYLQMNSLKPEDTAVYYCNARSWYVRVDYWGQGTQVTVSS | low polyreactivity
36 | QVQLVESGGGLVQAGGSLRLSCAASGSIIVLNAMGWYRQAPGKERELVAAITSGGSTYYADSVKGRFTISRDNAKNTVYLQMNSLKPEDTAVYYCNALDLSPSYKYDYWGQGTQVTVSS | low polyreactivity
37 | QVQLVESGGGLVQAGGSLRLSCAASGSIIVWNAMGWYRQAPGKERELVAAITWSGVTTYYADSVKGRFTISRDNAKNTVYLQMNSLKPEDTAVYYCAAGRTRRKFDYWGQGTQVTVSS | low polyreactivity
38 | QVQLVESGGGLVQAGGSLRLSCAASGSIIVYNTMGWYRQAPGKERGLVAAITVRDDSTYYADSVKGRFTISRDNAKNTVYLQMNSLKPEDTAVYYCNVRKTWYGYSVTGRYDYWGQGTEVTVSS | low polyreactivity
39 | QVQLVESGGGLVQAGGSLRLSCAASGSIIYRYVMGWYRQAPGKERESVAAISWRGTNTYADSVKGRFTISRDNAKNTVYLQMNSLKPEDTAVYYCAARKWDRYRDFEYWGQGTQVTVSS | high polyreactivity
40 | QVQLVESGGGLVQAGGSLRLSCAASGSIIYTNAMGRYRQAPGKEREVVAAITGTTTTNYADSVKGRFTISRDNAKNTVYVQMNSLKPEDTAVYYCNADYDRSRVYYSVELYDYWGQGTQVTVSS | low polyreactivity
41 | QVQLVESGGGLVQAGGSLRLSCAASGSIIYWYAMGWYRQAPGKERELVADISRGGITYYADSVKGRFTISRDNAKNTVYLQMNSLKPEDTAVYYCSKTHYGVQRLDSWGQGTQVTVSS | low polyreactivity
42 | QVQLVESGGGLVQAGGSLRLSCAASGSIIYYNAMGWYRQAPAKERELVAAITGSGGSTYYADSVKGRFTISRDNAINTVYLQMNSLKPEDTAVYDCAADYSLYGWWFRNDYWGQGTQVTVSS | low polyreactivity
43 | QVQLVESGGGLVQAGGSLRLSCAASGSIIYYYAMGWYRQAPGKERELVAAISASGGRTYYADSVKGRFTISRDNAKNTVYLQMNSLKPEDTAVYYCAKRGTLGSYYYWGQGTQVTVSS | high polyreactivity
